Laboratory results: patent publication US6312690, “Monoclonal recombinant anti-rhesus D (D7C2) antibody” (Institut Pasteur, dated 2001)

What was measured:
Rhesus D antigen [1] = biological target: T1, Rhesus D antigen (human, UniProt Q02161)
T1 sequence: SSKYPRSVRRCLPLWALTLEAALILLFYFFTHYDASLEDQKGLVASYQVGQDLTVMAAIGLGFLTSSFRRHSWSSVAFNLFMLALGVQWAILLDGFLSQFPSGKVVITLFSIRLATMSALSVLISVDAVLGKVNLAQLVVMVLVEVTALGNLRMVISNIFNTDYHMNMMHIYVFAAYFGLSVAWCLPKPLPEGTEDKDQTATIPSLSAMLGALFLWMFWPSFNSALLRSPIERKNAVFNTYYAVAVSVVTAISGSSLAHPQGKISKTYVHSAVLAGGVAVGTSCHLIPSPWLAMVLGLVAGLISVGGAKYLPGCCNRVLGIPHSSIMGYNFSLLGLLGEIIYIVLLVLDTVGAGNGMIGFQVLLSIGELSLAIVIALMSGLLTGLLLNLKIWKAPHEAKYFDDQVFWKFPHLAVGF

Rhesus D antigen [2] = biological target: T1, Rhesus D antigen; assay: agglutination titre on a pool of papain-treated R1/r red blood cells, one hour at 37° C.
Rhesus D antigen [3] = biological target: T1, Rhesus D antigen; assay: agglutination of red blood cells

| Molecule | % specific lysis (ADCC test, 51Cr release) (% specific lysis) (Rhesus D antigen [1]) | titre (titre (1/x dilution)) (Rhesus D antigen [2]) | binding result (Rhesus D antigen [3]) |
| --- | --- | --- | --- |
| "irrelevant" recombinant antibody (IgG1, κ) directed against a protein other than the Rhesus antigen | 0 |  |  |
| r-IgG-D7C2 recombinant monoclonal antibody (antibody, V domains shown) VH: QVQLEQWGAGLLKPSETLSLTCTVYGGSFSGYYWSWIRQPPGKGLEWIGEINHSGSTNYNPSLKSRVTISVDTSKNQFSLKLNSVTAADTAVYYCARAPEYKWKYHGDWFDPWGQGTTVTVSS VL: DIELTQDPAVSVALGQTVRITCQGDSLRTYYASWYQQKPGQAPVLVIYGKNNRPSGIPDRFSGSSSGNTASLTITGAQAEDEADYFCNSGGKVFGGGTKLTVLG | 93.3 | 512 |  |
| IgM-D7C2 human parental monoclonal antibody (antibody, V domains shown) VH: QVQLQQWGAGLLKPSETLSLTCTVYGGSFSGYYWSWIRQPPGKGLEWIGEINHSGSTNYNPSLKSRVTISVDTSKNQFSLKLNSVTAADTAVYYCARAPEYKWKYHGDWFDPWGQGTTVTVSS VL: QSVLTQDPAVSVALGQTVRITCQGDSLRTYYASWYQQKPGQAPVLVIYGKNNRPSGIPDRFSGSSSGNTASLTITGAQAEDEADYFCNSGGKVFGGGTKLTVLG |  |  | binds |
